# Test system: Escherichia coli TOP10
# Assay: shrunken log2 fold change of peptide-encoding DNA abundance (4.5 h post-induction vs induction); higher = less antimicrobial activity (less host growth inhibition)
# Conditions: time post-induction: 4.5 h; library: site-saturation at positions 5, 18, 19, 20
# 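Note: peptides expressed intracellularly from a pBAD plasmid library in pooled LB shake-flask culture, induced with 0.3% L-arabinose, DNA abundance read by NGS, three biological replicates, DESeq2 with apeglm shrinkage.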
row,Sequence,shrunken log2 fold change
1,RRIRFRPPRLPRPRPRPVEQPRP,-0.0448
2,RRIRNRPPRLPRPRPRPQHYPRP,-0.319
3,RRIRARPPRLPRPRPRPNCWPRP,0.563
4,RRIRQRPPRLPRPRPRPVDNPRP,0.0335
5,RRIRYRPPRLPRPRPRPPHCPRP,-0.396
6,RRIRQRPPRLPRPRPRPPQPPRP,1.1
7,RRIRIRPPRLPRPRPRPFHIPRP,-0.127
8,RRIRMRPPRLPRPRPRPYQAPRP,2.21
9,RRIRQRPPRLPRPRPRPQKPPRP,0.0718
10,RRIRIRPPRLPRPRPRPQAVPRP,-0.0119
11,RRIRWRPPRLPRPRPRPLPEPRP,0.265
12,RRIRSRPPRLPRPRPRPGQRPRP,0.0367
13,RRIRHRPPRLPRPRPRPQKHPRP,-0.992
14,RRIRMRPPRLPRPRPRPRRRPRP,1.53
15,RRIRWRPPRLPRPRPRPGWFPRP,0.249
16,RRIRLRPPRLPRPRPRPMGRPRP,0.0605
17,RRIRVRPPRLPRPRPRPMVYPRP,-0.17
18,RRIRIRPPRLPRPRPRPCKLPRP,-0.167
19,RRIRKRPPRLPRPRPRPACIPRP,0.031
20,RRIRKRPPRLPRPRPRPTKAPRP,0.647
21,RRIRPRPPRLPRPRPRPEPNPRP,0.293
22,RRIRYRPPRLPRPRPRPEKRPRP,0.00709

row,Sequence,shrunken log2 fold change
1,RRIRFRPPRLPRPRPRPEWSPRP,0.219
2,RRIRARPPRLPRPRPRPEWDPRP,1.13
3,RRIRVRPPRLPRPRPRPPPQPRP,0.856
4,RRIRSRPPRLPRPRPRPKAPPRP,0.184
5,RRIRYRPPRLPRPRPRPIRSPRP,-0.214
6,RRIRTRPPRLPRPRPRPMWQPRP,0.0135
7,RRIRHRPPRLPRPRPRPDYVPRP,-0.165
8,RRIRARPPRLPRPRPRPHPSPRP,0.327
9,RRIRMRPPRLPRPRPRPLRIPRP,1.06
10,RRIRHRPPRLPRPRPRPKMYPRP,-0.289
11,RRIRCRPPRLPRPRPRPKDPPRP,0.148
12,RRIRDRPPRLPRPRPRPQARPRP,1.05
13,RRIRDRPPRLPRPRPRPGQMPRP,-0.0138
14,RRIRDRPPRLPRPRPRPARHPRP,0.368
15,RRIRNRPPRLPRPRPRPHRDPRP,-0.0417
16,RRIRTRPPRLPRPRPRPRVCPRP,0.369
17,RRIRPRPPRLPRPRPRPGSIPRP,-0.261
18,RRIRKRPPRLPRPRPRPIVHPRP,-0.42
19,RRIRSRPPRLPRPRPRPKDKPRP,-0.117
20,RRIRCRPPRLPRPRPRPMNEPRP,-0.307
21,RRIRDRPPRLPRPRPRPMKTPRP,-0.00973
22,RRIRSRPPRLPRPRPRPQEAPRP,-0.0452

row,Sequence,shrunken log2 fold change
1,RRIRHRPPRLPRPRPRPSESPRP,-0.232
2,RRIRTRPPRLPRPRPRPATTPRP,-0.181
3,RRIRYRPPRLPRPRPRPKDNPRP,-0.75
4,RRIRVRPPRLPRPRPRPIGYPRP,0.117
5,RRIRIRPPRLPRPRPRPDQSPRP,-0.138
6,RRIRLRPPRLPRPRPRPWDCPRP,-0.0998
7,RRIRCRPPRLPRPRPRPEKDPRP,-0.0681
8,RRIRDRPPRLPRPRPRPKYWPRP,-0.147
9,RRIRCRPPRLPRPRPRPWIFPRP,-0.159
10,RRIRWRPPRLPRPRPRPPCYPRP,-0.436
11,RRIRNRPPRLPRPRPRPFCMPRP,-0.45
12,RRIRWRPPRLPRPRPRPVRRPRP,0.365
13,RRIRCRPPRLPRPRPRPEDIPRP,-0.12
14,RRIRMRPPRLPRPRPRPCTWPRP,-0.0287
15,RRIRARPPRLPRPRPRPKAKPRP,0.287
16,RRIRSRPPRLPRPRPRPVMFPRP,-0.118
17,RRIRFRPPRLPRPRPRPFQIPRP,-0.0567
18,RRIRYRPPRLPRPRPRPIAGPRP,-0.107
19,RRIRPRPPRLPRPRPRPLEPPRP,0.0434
20,RRIRMRPPRLPRPRPRPHDIPRP,-0.104
21,RRIRWRPPRLPRPRPRPNNHPRP,-0.588
22,RRIRGRPPRLPRPRPRPVEDPRP,0.0393

row,Sequence,shrunken log2 fold change
1,RRIRGRPPRLPRPRPRPIIWPRP,0.392
2,RRIRVRPPRLPRPRPRPRFNPRP,-0.264
3,RRIRTRPPRLPRPRPRPRTSPRP,0.098
4,RRIRYRPPRLPRPRPRPEHQPRP,-0.464
5,RRIRFRPPRLPRPRPRPEVVPRP,0.723
6,RRIRCRPPRLPRPRPRPCERPRP,-0.0644
7,RRIRDRPPRLPRPRPRPTLAPRP,0.933
8,RRIRQRPPRLPRPRPRPVNSPRP,-0.0167
9,RRIRVRPPRLPRPRPRPRWCPRP,0.295
10,RRIRWRPPRLPRPRPRPYAEPRP,0.258
11,RRIRRRPPRLPRPRPRPCFPPRP,0.592
12,RRIRARPPRLPRPRPRPNDPPRP,0.104
13,RRIRCRPPRLPRPRPRPRYQPRP,-0.319
14,RRIRVRPPRLPRPRPRPIEMPRP,-0.267
15,RRIRLRPPRLPRPRPRPIKSPRP,-0.202
16,RRIRYRPPRLPRPRPRPLMNPRP,-0.217
17,RRIRSRPPRLPRPRPRPHTWPRP,-0.0472
18,RRIRSRPPRLPRPRPRPARKPRP,0.213
19,RRIRPRPPRLPRPRPRPMKYPRP,-0.157
20,RRIRHRPPRLPRPRPRPNDEPRP,-0.0904
21,RRIRMRPPRLPRPRPRPRDLPRP,0.266
22,RRIRNRPPRLPRPRPRPKNVPRP,-0.267

row,Sequence,shrunken log2 fold change
1,RRIRRRPPRLPRPRPRPDKDPRP,0.00839
2,RRIRVRPPRLPRPRPRPIILPRP,-0.483
3,RRIRVRPPRLPRPRPRPVQTPRP,0.0297
4,RRIRNRPPRLPRPRPRPYCYPRP,-1.44
5,RRIRHRPPRLPRPRPRPAGWPRP,0.449
6,RRIRCRPPRLPRPRPRPMWKPRP,-0.0547
7,RRIRVRPPRLPRPRPRPGGDPRP,0.0318
8,RRIRDRPPRLPRPRPRPTLCPRP,0.33
9,RRIRNRPPRLPRPRPRPCHFPRP,-0.166
10,RRIRKRPPRLPRPRPRPWWPPRP,0.0304
11,RRIRTRPPRLPRPRPRPNNDPRP,-0.797
12,RRIRTRPPRLPRPRPRPVPRPRP,0.315
13,RRIRERPPRLPRPRPRPWSNPRP,-0.0583
14,RRIRQRPPRLPRPRPRPYWRPRP,0.0113
15,RRIRNRPPRLPRPRPRPMIRPRP,-0.0231
16,RRIRYRPPRLPRPRPRPGGMPRP,-0.297
17,RRIRKRPPRLPRPRPRPIYRPRP,-0.0881
18,RRIRLRPPRLPRPRPRPIIHPRP,-0.186
19,RRIRARPPRLPRPRPRPMTNPRP,0.178
20,RRIRPRPPRLPRPRPRPCSTPRP,-0.173
21,RRIRNRPPRLPRPRPRPINCPRP,0.00363

# Source: the supplement of paper PMC9112550, “Optimization of the antimicrobial peptide Bac7 by deep mutational scanning” (BMC Biology, 2022)
